These results are taken from the nanobody polyreactivity screen of Harvey et al. (2022).

This series can be described thus: yeast display, Sf9 membrane polyspecificity reagent, FACS + sequencing; frameworks hold sequencing errors. The gist of the method:
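Galactose-induced (36–48 hours) yeast carrying a synthetic nanobody display library were exposed to 10% biotinylated, detergent-solubilized Sf9 membrane reagent at 4 °C for 1 hour. FACS followed streptavidin microbead enrichment, using low and high (top ~1%) gates for expression (anti-HA) and reagent binding (streptavidin). Colony PCR, MiSeq 2 × 250 sequencing and CDR-length filtering followed. Labels for polyreactivity reflect the gate of origin.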
With “QVQLVESGGGLVQAGGSLRLSCAASGIIFDSYAMGWYRQAPGKERELVAAITSDSGRTYYADSVKGRFTISRDNAKNTVYLHMNSLKPEDTAVYYCNADAYTYPTARYYWGQGTQVTVSS”, the “polyreactivity (PSR sort gate)” value is reported as “low polyreactivity”.

Take “QVQLVESGGGLVQAGGSLRLSCAASGIIFDSYAMGWYRQAPGKERELVAAITSRGGRTYYADSVKGRFTISRDNAKNTVSLQMNSLKPEDTAVYYCAARAKYDRRTDGTSGYDYWGQGTQVTVSS”: the “polyreactivity (PSR sort gate)” value was “low polyreactivity”.

On to “QVQLVESGGGLVQAGGSLRLSCAASGIIFDSYTMGWYRQAPGKERELVAGISGSGGSTDYADSVKGRFTISRDNAKNTFYLQMNSLKPEDTAVYYCAARPTPYRDDADEYWGQGTQVTVSS”, for which the “polyreactivity (PSR sort gate)” value was “low polyreactivity”.

For the sequence “QVQLVESGGGLVQAGGSLRLSCAASGIIFDYNAMGWYRQAPGKERELVAAITWSGSSTFYADSVKGRFTISHDNAKNTVYLLMNSLKPEDTAVYYCNAEYYWGTYANFDYWGQGTQVTVSS”, the “polyreactivity (PSR sort gate)” value was “low polyreactivity”.

Regarding “QVQLVESGGGLVQAGGSLRLSCAASGIIFEGNVMGWYRQAPGKERELVAAITSDTSTNYADSVKGRFTISRDNAKNTVYLQMNSLKPEDTAVYYCNAVIGTDYYYSGTAEFYYWGQGTQVTVSS”, the “polyreactivity (PSR sort gate)” value was “low polyreactivity”.

For the sequence “QVQLVESGGGLVQAGGSLRLSCAASGIIFEGYAMGWYRQAPGKERELVAAISQSGGSTRYADSVKGRFTISRDNAKNTVYLQMNSLKPEDTAVYYCAARYILWDGDSWTEFDYWGQGTQVTVSS”, the “polyreactivity (PSR sort gate)” value is on record as “low polyreactivity”.

For the sequence “QVQLVESGGGLVQAGGSLRLSCAASGIIFENYAMGWYRQAPGKERELVAAITIGGSTYYADSVKGRFTISRDNAKNTVYLQMNSLKPEDTAVYYCAARSGAQRGGGYWGQGTQVTVSS”, the “polyreactivity (PSR sort gate)” value is recorded as “high polyreactivity”.

With “QVQLVESGGGLVQAGGSLRLSCAASGIIFEYYAMGWYRQAPGKERELVAAISKRGGSTYYADSVKGRFTISRDNAKNTVYLQMNSLKPEDTAVYYCNARRRYYSGPVYLHYRVNYWGQGTQVTVSS”, the “polyreactivity (PSR sort gate)” value is on record as “high polyreactivity”.

“QVQLVESGGGLVQAGGSLRLSCAASGIIFEYYAMGWYRQAPGKERELVAAITRGGSTYYADSVKGRFTISRDNAKNTVYLQMNSLKAEDTAVYYCAADRYYYEYDYWGQGTQVTVSS”: the “polyreactivity (PSR sort gate)” value is recorded as “low polyreactivity”.

Take “QVQLVESGGGLVQAGGSLRLSCAASGIIFFANAMGWYRQAPGKERELVASISASGGNTYYADSVKGRFTISRDNAKNTVYLQMNSLKPEDTAVYYCAARARRSQSISLKYYYWGQGTQVTVSS”: the “polyreactivity (PSR sort gate)” value is listed as “high polyreactivity”.

“QVQLVESGGGLVQAGGSLRLSCAASGIIFFDYAMGWYRQAPGKDRELVAAISSGGGNTYYADSVKGRFTISRDNAKNTVYLQMNSLKPEDSAVYYCAAEPYIYGEQGAYDYWGQGTQVTVSS”: the “polyreactivity (PSR sort gate)” value is “low polyreactivity”.

For “QVQLVESGGGLVQAGGSLRLSCAASGIIFFKNAMGWYRQAPGKERELVAAISSTDTRTYYADSVKGRFTISRDNAKNTVYLQMNSLKPEDTAVYYCAASRRGGGLDYWGQGTQVTVSS”, the “polyreactivity (PSR sort gate)” value is given as “high polyreactivity”.

Consider “QVQLVESGGGLVQAGGSLRLSCAASGIIFFNNVMGWYRQAPGKERVLVAGITYTGGSTYYADSVKGRFTISRDNAKNTVYLHMNSLKPEDTAVYNCNKDYANTRRVTEYDYWGQGTQVTVSS”, for which the “polyreactivity (PSR sort gate)” value is on record as “low polyreactivity”.

As for “QVQLVESGGGLVQAGGSLRLSCAASGIIFFRNAMGWYRQAPGKERELVAAIRWSGGSSYYADSVKGRYTISRDNAKNTVYLQINSLKPEDTAVYYCNAVTVYKHGSWGQGTQVTVSS”, the “polyreactivity (PSR sort gate)” value is given as “high polyreactivity”.

On to “QVQLVESGGGLVQAGGSLRLSCAASGIIFFSNAMGWYRQAPGKERELVAAITGGSSTNYADSVKGRFTISRDNAKNTVYLQMNSLKPEENAVYYCNAPTKSTPRSEPIPYYEFDYWGQGTQVTVSS”, for which the “polyreactivity (PSR sort gate)” value is reported as “low polyreactivity”.

Consider “QVQLVESGGGLVQAGGSLRLSCAASGIIFFWNAMGWYRQAPGKERELVAAISEDGGGTYYADSVKGRFTISRDNAKNTVYLQMNSLKPEDTAVYYCNTDTSPQIVTRRSFDDYWGQGTQVTVSS”, for which the “polyreactivity (PSR sort gate)” value was “low polyreactivity”.

“QVQLVESGGGLVQAGGSLRLSCAASGIIFFWNAMGWYRQAPGKERELVAAISEDGGGTYYADSVKGRFTISRDNAKNTVYLQMNSMKPEDTAVYYCNTDTSPQIVTRGSFDDYWGQGTQATVSS”: the “polyreactivity (PSR sort gate)” value is “low polyreactivity”.

As for “QVQLVESGGGLVQAGGSLRLSCAASGIIFGDNAMGWYRQAPGKERELVAAIDSGGSTYYADSVKGRFTISRDNAKTTVYCPMNSLKPEDTAVYYCNAVTAFGYSYGGWDYDQYNYWGQGTQVTVSS”, the “polyreactivity (PSR sort gate)” value was “low polyreactivity”.

Take “QVQLVESGGGLVQAGGSLRLSCAASGIIFGDNAMGWYRQAPGKERELVAAISSSGTSTNYADSVKGRFTISRDNAKNTVYLQMNSLKPEDSAVYYCAKDVLPPYPQSPSGGDYWGQGTQVTVSS”: the “polyreactivity (PSR sort gate)” value is listed as “low polyreactivity”.

As to “QVQLVESGGGLVQAGGSLRLSCAASGIIFGDNAMGWYRQAPVTERELVAAIDSGGSTYYADSVKGRFTISRDNAKNTVYLQMISLKPEDTAVYYCNAVTAFGYSYAGWDYDQYNYWGQGTEVTVSS”, the “polyreactivity (PSR sort gate)” value is listed as “low polyreactivity”.

Regarding “QVQLVESGGGLVQAGGSLRLSCAASGIIFGGNAMGWYRQAPGKERELVATISNGGSTKYADSVKGRFTISRDNAKNTVYLQMNSLKPEYTAVYYCAAQPRVGSYVRSSRGRYNHWGQGTQVTVSS”, the “polyreactivity (PSR sort gate)” value is on record as “high polyreactivity”.

With “QVQLVESGGGLVQAGGSLRLSCAASGIIFGGYAMGWYRQAPGKERELVADISGISSNTYYADSVKGRFTISRDNAKNTVYLQMNSLKPEDTAVYYCAADLTAWWAPVIFYYWGQGTQVTVSS”, the “polyreactivity (PSR sort gate)” value was “high polyreactivity”.

For the sequence “QVQLVESGGGLVQAGGSLRLSCAASGIIFGGYAMGWYRQAPGKERELVASITYDGGSTSYEDSVKGRFTISRDNAKNTVYLQMNSLKPEDTAVYYCNAELFSVNGYDYWGQGTQVTVSS”, the “polyreactivity (PSR sort gate)” value is “low polyreactivity”.

As for “QVQLVESGGGLVQAGGSLRLSCAASGIIFGGYDMGWYRQAPGKERELVAAISWSGGSTYYADSVKGRFTISRDNAKNTVYLQMNSLKPEDTAVYYCAAAYYAPSRDYYYWGQGTQVTVSS”, the “polyreactivity (PSR sort gate)” value is on record as “low polyreactivity”.

For the sequence “QVQLVESGGGLVQAGGSLRLSCAASGIIFGINAMGWYRQAPGKERELVATITSGGGTNYADSVKGRFTISRDNAKNTVYLQMNSLKPEDTAVYYCAKPTYRFYWGDFDYWGQGTQVTVSS”, the “polyreactivity (PSR sort gate)” value was “low polyreactivity”.

As to “QVQLVESGGGLVQAGGSLRLSCAASGIIFGKYAMGWYRQAPGKERELVAAINYSGSTYYADSVKGRFTISRDNAKNTVYLQMNSLKPEDTAVYYCAAVLGLDTRYDYWGQGTQVTVSS”, the “polyreactivity (PSR sort gate)” value is “high polyreactivity”.

On to “QVQLVESGGGLVQAGGSLRLSCAASGIIFGRNVMGWYRQAPGKERELVAAISWSGGSTYYADSVKGRFTISRDNAKNTVYLQMNSLKPEDTAVYYCAASYWWIPMEYWGQGTQVTVSS”, for which the “polyreactivity (PSR sort gate)” value was “high polyreactivity”.

For the sequence “QVQLVESGGGLVQAGGSLRLSCAASGIIFGRYAMGWYRQSPGKERELVAAISSRGGSTYYADSVKGRFTISRDNAKNTVYLQMNSLKPEDTAVYYCAATWCFLRGSTKYYYWGQGTQVTVSS”, the “polyreactivity (PSR sort gate)” value is on record as “high polyreactivity”.

In the case of “QVQLVESGGGLVQAGGSLRLSCAASGIIFGRYPMGWYRQAPGKERELVAAITSSGITYYADSVKGRFTISRDNAKNTVYLQMNSLKPEDTAVYYCNADYSIPGYYWPYDYWGQGTQVTVSS”, the “polyreactivity (PSR sort gate)” value is given as “low polyreactivity”.

On to “QVQLVESGGGLVQAGGSLRLSCAASGIIFGSYAMGWYRQAPGKERELVAAISRGTSTYYAVSVKGRFTISRDNAKNTVYLQMNSLKPEDSAVYYCAATRQQYGPHSRFVYVNYYYCGQGTQVTVSS”, for which the “polyreactivity (PSR sort gate)” value is reported as “low polyreactivity”.

For “QVQLVESGGGLVQAGGSLRLSCAASGIIFGTNAMGWYRQAPGKERELVAYITSGGSTYADSVKGRFTISRDNAKNTFYLQMHSLKPEDTEVYYCAAYVFWAFYEYDYWGQGTQVTVSS”, the “polyreactivity (PSR sort gate)” value is “low polyreactivity”.

Turning to “QVQLVESGGGLVQAGGSLRLSCAASGIIFGTYAMGWYRQAPGKERELVAAITRSGGSTYYADSVMGRFTISRDNAKNTVYLQMNSLKPEDTAVYYCAASSTWYGYYIYVFRAYDYWGQGTQGTVSS”, the “polyreactivity (PSR sort gate)” value is recorded as “low polyreactivity”.

On to “QVQLVESGGGLVQAGGSLRLSCAASGIIFGTYAMGWYRQAPGKERELVASISSRGGSTYYADTVKGRFTISRDNAKNTVYLQMNSLKPEDTAVYYCAARNAYPGNSMDSWGLGTQVTVSS”, for which the “polyreactivity (PSR sort gate)” value is reported as “high polyreactivity”.

On to “QVQLVESGGGLVQAGGSLRLSCAASGIIFGVNVMGWYRQAPGKERELVATITWRGDSTYYADSVKGRFTISRDNAKNTVYLQMNSLKPEDTAVYYCAVLRSWWYRYDYWGQGTQVTVSS”, for which the “polyreactivity (PSR sort gate)” value was “low polyreactivity”.

Regarding “QVQLVESGGGLVQAGGSLRLSCAASGIIFGWYAMGWYRQAPGKERELVAAISYSGGSTYYADSVKGRFTISRDNAKNTVYLQMNSLKPEDTAVYYCAVQRYWGQGTQVTVSS”, the “polyreactivity (PSR sort gate)” value is listed as “high polyreactivity”.

With “QVQLVESGGGLVQAGGSLRLSCAASGIIFGWYAMGWYRQAPGKERELVAAITWSGASTYYADSVKGRFTISRDNAKNTVYLQMNSLKPEDTAVYYCAAESVDNIYYGFDYWGQGTQVTVSS”, the “polyreactivity (PSR sort gate)” value was “high polyreactivity”.

Consider “QVQLVESGGGLVQAGGSLRLSCAASGIIFGYSAMGWYRQAPGKERELVAAITRSGSSTYYADSVKGRFTISRDNAKNTVYLQMNSLKPEDTAVYYCAADNFYQSYGYWGQGTQVTVSS”, for which the “polyreactivity (PSR sort gate)” value was “low polyreactivity”.

Turning to “QVQLVESGGGLVQAGGSLRLSCAASGIIFGYYAMGWYRQAPGKVRELVAAISWSGGSTYYADSVKGRFTFSRDNAKNTVYLQMNSLKPEDTAVYYCNAVYVSYTYQQTRSGGYDYWGQGTQVTVSS”, the “polyreactivity (PSR sort gate)” value is “high polyreactivity”.

Regarding “QVQLVESGGGLVQAGGSLRLSCAASGIIFHLYTMGWYRQAPGKERELVAAISNNGGRTYYADSVKGRFTISRDNAKNTVYLQMNSLKPEDTAVYYCAKYLSPGERHSYDYWGQGTQVTVSS”, the “polyreactivity (PSR sort gate)” value was “high polyreactivity”.

In the case of “QVQLVESGGGLVQAGGSLRLSCAASGIIFINYVMGWYRQAPGKESELVAAITGSGSSTYYADSVKGRFTISRDNAKNTVYLQMNSLKPEDTAVYYCAADNPRVRFLYYYWGQGTQVTVSS”, the “polyreactivity (PSR sort gate)” value is “high polyreactivity”.
